Substitutions are numbered along the chain they refer to. Names may count otherwise.

As usually defined, the EC50 is the midpoint of the concentration-response curve. For orientation: EC50 (read off the curve) means the concentration at which the effect is half-maximal. The low end stands for an effect from little substance, the high end for a need for much substance.

Assay [1] has as its target T1, human CD73 expressed at the cell surface (human, UniProt P21589 27-549).
T1 construct: GPI-anchored dimer on cells; also called huCD73; cellular CD73
T1 sequence: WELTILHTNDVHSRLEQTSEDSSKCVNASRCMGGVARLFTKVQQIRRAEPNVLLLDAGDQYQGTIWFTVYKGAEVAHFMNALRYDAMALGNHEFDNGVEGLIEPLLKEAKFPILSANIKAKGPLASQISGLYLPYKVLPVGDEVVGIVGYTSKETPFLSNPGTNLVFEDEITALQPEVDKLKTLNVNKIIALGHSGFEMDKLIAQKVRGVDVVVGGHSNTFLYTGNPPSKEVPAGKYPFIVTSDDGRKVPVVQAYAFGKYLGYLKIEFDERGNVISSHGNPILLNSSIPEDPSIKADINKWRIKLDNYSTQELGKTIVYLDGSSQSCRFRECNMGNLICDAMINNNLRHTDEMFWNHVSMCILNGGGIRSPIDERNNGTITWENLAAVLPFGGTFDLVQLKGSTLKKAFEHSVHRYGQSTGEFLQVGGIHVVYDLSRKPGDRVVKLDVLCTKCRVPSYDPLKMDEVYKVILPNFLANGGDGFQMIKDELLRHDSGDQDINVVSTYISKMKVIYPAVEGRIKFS
Kind of assay: flow cytometry on MDA-MB-231 cells, medium (no APCP). As to the method: MDA-MB-231 cells are available from ATCC (reference HTB-26). 10⁵ cells resuspended in PBS/0.2% BSA/0.02% NaN3 (named “staining buffer”) are distributed into round bottom 96W-microplates. Dose-range of anti-CD73 antibodies was added to the plates and cells are incubated for 45 min at 4° C. Cells were washed three times in staining buffer by spinning plates at 400 g for 3 min at 4° C. PE-coupled goat anti-mouse or goat anti-human IgG Fc fragment secondary antibodies (Beckman Coulter) diluted in staining buffer were added to the cells and plates are incubated for 30 additional minutes at 4° C. Cells were washed three times as described above and analyzed on an Accury C6 flow cytometer equipped with an HTFC plate reader.
Cells were pre-incubated at 37° C. for 30 minutes in the presence or not of 200 μM adenosine 5′-(α,β-methylene)diphosphate (APCP), followed by addition of antibodies. APCP is an analog of ADP and binds irreversibly to the active site of CD73. When bound by APCP, CD73 changes conformation from an “open” conformation to a “closed” conformation. mAbs 11E1, 8C7, 3C12 and 6E1 bound MDA-MB-231 cells with good affinity both in the presence and absence of APCP. In the presence of APCP, the EC50 was similar to that observed in the absence of APCP. The plateau for maximal binding of 11E1, 8C7, 3C12 and 6E1 was higher in the absence of APCP than in the presence of APCP, while the inverse was true for AD2.
In general terms: A flow cytometer gives signals particle by particle.

Assay [2] concerns the target T1, human CD73 expressed at the cell surface. Kind of assay: flow cytometry titration on HEK293T cells transfected with wild type human CD73, mean of fluorescence.

B1: antibody 11E1 (antibody, human IgG1, V domains shown)
VH: EIQLQQSGPELVKPGASVKVSCKASGYAFTSYNMYWVKQSHGKSLEWIGYIDPYNGGTSYNQKFKGKATLTVDKSSSTAYMHLNSLTSEDSAVYYCARGYGNYKAWFAYWGQGTLVTVSA
VL: DAVMTQTPKFLLVSAGDRVTITCKASQSVTNDVAWYQQKPGQSPKLLIYYASNRYTGVPDRFTGSGYGTDFTFTISTVQAEDLAVYFCQQDYSSLTFGAGTKLELK
notes: Produced as chimeric human IgG1 with heavy chain N297Q (Kabat EU numbering); also called 1E11
B1 returned a concentration for a half-maximal effect (EC50) in assay [1] of 0.0611 µg/mL.

B2: antibody 3C12 (antibody, human IgG1, V domains shown)
VH: B1 VH with E1Q, T30A, Y35N, E46D, T58S, Q62L, K63T, S77T
VL: DVVMTQTPKFLLVSAGDRVTITCKASQSVSNDVAWYQQKPGQSPKLLIYYASTRYTGVPDRFTGSGYGTDFTFTISTVQAEDLAVYFCQQDYSSLTFGAGTKLELKR
notes: Produced as chimeric human IgG1 with heavy chain N297Q (Kabat EU numbering); RTVAAP)
On to B2, for which the half-maximal effective concentration (EC50 (read off the curve)) in assay [2] was approximately 0.2 µg/mL. Moreover, the half-maximal effective concentration (EC50) in assay [1] is 0.0572 µg/mL.

B3: antibody 6E1 (antibody, human IgG1, V domains shown)
VH: B1 VH with I2F, S44R, T58S, S85N, G101N
VL: B1 VL with D1S, A2I, V78M
notes: Produced as chimeric human IgG1 with heavy chain N297Q (Kabat EU numbering)
Molecule B3 returned a 50% effective concentration (EC50) in assay [1] of 0.0584 µg/mL.

These data come from patent US20180030144A1 (INNATE PHARMA, published 2018).
